We go through 22 molecules from patent US20130315914A1 (NOVIMMUNE, published 2013).

Sequences and labels used below:
B1: 1E11 antibody (IgG1 reformatted) (antibody, V domains shown)
VH: QVQLQESGPGLVKPSDTLSLTCAVSGYSITGGYSWHWIRQPPGKGLEWMGYIHYSGYTDFNPSLKTRITISRDTSKNQFSLKLSSVTAVDTAVYYCARKDSGNYFPYWGQGTLVTVSS
VL: EIVLTQSPDFQSVTPKEKVTITCRASQSISDHLHWYQQKPDQSPKLLIKYASHAISGVPSRFSGSGSGTDFTLTINSLEAEDAATYYCQQGHSFPLTFGGGTKVEIKR
notes: also called 1E11 Mab
B2: 1E11.E4 antibody (IgG1) (antibody, V domains shown)
VH: B1 VH
VL: EIVLTQSPDFQSVTPKEKVTITCRASQSISDHLHWYQQKPDQSPKLLIKYASHAISGVPSRFSGSGSGTDFTLTINSLEAEDAATYYCQQGYDYPLTFGGGTKVEIK
B3: 1E11.E1 antibody (IgG1) (antibody, V domains shown)
VH: B1 VH
VL: B2 VL with Y92N, Y94F, L96V
B4: 1E11.C6 antibody (IgG1) (antibody, V domains shown)
VH: B1 VH with S28P, T30G
VL: B2 VL with Y92H, D93S, Y94F
B5: 1E11.C3 antibody (IgG1) (antibody, V domains shown)
VH: B1 VH with S28P, T30R, G31H
VL: B2 VL with Y92H, D93S, Y94F
B6: 1E11.E3 antibody (IgG1) (antibody, V domains shown)
VH: B1 VH
VL: B2 VL with Y94F
B7: 1E11.E2 antibody (IgG1) (antibody, V domains shown)
VH: B1 VH
VL: B2 VL with Y94E, L96F
B8: 1E11.C2E1 antibody (IgG1) (antibody, V domains shown)
VH: B1 VH with S28P, T30R, G31F
VL: B2 VL with Y92N, Y94F, L96V
B9: 1E11.C2E5 antibody (IgG1) (antibody, V domains shown)
VH: B1 VH with S28P, T30R, G31F
VL: B2 VL with D93E, Y94F
B10: 1E11.C2E4 antibody (IgG1) (antibody, V domains shown)
VH: B1 VH with S28P, T30R, G31F
VL: B2 VL
B11: 1E11.C5 antibody (IgG1) (antibody, V domains shown)
VH: B1 VH with S28P, T30W
VL: B2 VL with Y92H, D93S, Y94F
B12: 1E11.E5 antibody (IgG1) (antibody, V domains shown)
VH: B1 VH
VL: B2 VL with D93E, Y94F
B13: 1E11.C1 antibody (IgG1 reformatted) (antibody, V domains shown)
VH: B1 VH with Y27F, S28P, T30R, G31Y
VL: B1 VL
notes: VH 67 / VL 4 are the variable domains
B14: 1A1 antibody (IgG1) (antibody, V domains shown)
VH: B1 VH with N103R, Y104L, F105L
VL: B2 VL with Y92H, D93S, Y94F
notes: also called 1A1 Mab
B15: 1B12 antibody (IgG1) (antibody, V domains shown)
VH: B1 VH with N103H, Y104L, F105M
VL: B2 VL with Y92H, D93S, Y94F
notes: also called 1B12 Mab
B16: 1E11 N103D antibody (IgG1) (antibody, V domains shown)
VH: B1 VH with N103D
VL: B2 VL with Y92H, D93S, Y94F
notes: 1E11 with the N103D mutation in the heavy chain; also called 1E11 N103D Mab
B17: 1D10 antibody (IgG1) (antibody, V domains shown)
VH: B1 VH with N103H, Y104N, F105L
VL: B2 VL with Y92H, D93S, Y94F
notes: also called 1D10 Mab
B18: 1C12 antibody (IgG1) (antibody, V domains shown)
VH: B1 VH with N103Q, Y104L
VL: B2 VL with Y92H, D93S, Y94F
notes: also called 1C12 Mab
B19: 1C10 antibody (IgG1) (antibody, V domains shown)
VH: B1 VH with N103K, Y104N
VL: B2 VL with Y92H, D93S, Y94F
notes: also called 1C10 Mab
B20: 1G12 antibody (IgG1) (antibody, V domains shown)
VH: B1 VH with N103R, F105W
VL: B2 VL with Y92H, D93S, Y94F
notes: also called 1G12 Mab
B21: 1A6 antibody (IgG1) (antibody, V domains shown)
VH: B1 VH with N103K, Y104W, F105L
VL: B2 VL with Y92H, D93S, Y94F
notes: also called 1A6 Mab
B22: 1C7 antibody (IgG1) (antibody, V domains shown)
VH: B1 VH with N103H, Y104N, F105Y
VL: B2 VL with Y92H, D93S, Y94F
notes: also called 1C7 Mab

Changes are numbered by the printed parent chain. Numbers in names are those of the source.

T2 sequence (Q9Y6Y9 19-160, one chain of several): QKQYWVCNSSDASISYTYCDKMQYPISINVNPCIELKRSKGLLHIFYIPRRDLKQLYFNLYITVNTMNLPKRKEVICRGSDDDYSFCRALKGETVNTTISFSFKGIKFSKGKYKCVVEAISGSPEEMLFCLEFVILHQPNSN

The target of one experiment is T1, cynomolgus monkey TLR4 expressed on stably transfected CHO-K1 cells (cynomolgus monkey, UniProt Q9TSP2 24-826 (Papio anubis entry)).
T1 construct: Transfected alone; also called CHO cells expressing the cynomolgus monkey TLR4
T1 chain: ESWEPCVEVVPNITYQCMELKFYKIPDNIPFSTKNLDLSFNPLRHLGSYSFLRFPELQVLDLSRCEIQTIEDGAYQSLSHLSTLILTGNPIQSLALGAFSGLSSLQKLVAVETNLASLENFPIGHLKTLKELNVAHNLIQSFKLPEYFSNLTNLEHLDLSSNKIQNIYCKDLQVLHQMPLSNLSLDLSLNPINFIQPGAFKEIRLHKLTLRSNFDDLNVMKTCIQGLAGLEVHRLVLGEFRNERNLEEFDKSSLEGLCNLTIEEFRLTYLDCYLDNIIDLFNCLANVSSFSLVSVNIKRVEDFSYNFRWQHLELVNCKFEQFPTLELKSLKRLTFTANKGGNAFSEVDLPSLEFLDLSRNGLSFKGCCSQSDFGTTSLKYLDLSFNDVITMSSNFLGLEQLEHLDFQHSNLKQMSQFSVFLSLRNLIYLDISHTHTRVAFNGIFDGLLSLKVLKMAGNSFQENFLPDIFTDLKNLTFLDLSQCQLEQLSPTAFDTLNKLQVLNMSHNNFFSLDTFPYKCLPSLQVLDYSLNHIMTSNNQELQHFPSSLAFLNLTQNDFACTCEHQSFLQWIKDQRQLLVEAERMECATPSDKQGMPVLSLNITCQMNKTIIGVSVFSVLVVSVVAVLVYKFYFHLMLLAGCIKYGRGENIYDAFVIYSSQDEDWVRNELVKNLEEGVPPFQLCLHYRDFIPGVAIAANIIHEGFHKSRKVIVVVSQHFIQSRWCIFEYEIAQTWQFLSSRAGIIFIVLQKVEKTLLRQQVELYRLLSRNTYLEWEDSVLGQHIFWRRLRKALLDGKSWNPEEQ
As to the kind of experiment: summary grade (species binding potential); assay not given.
Take B1: the binding result is “binds”.
For the molecule B2, the binding result is listed as “binds”.
On the same count and under the same terms, the entry for B3 is “binds”; for B4 it is “binds”.
The same measure, in the same setting: then B5, with “binds”; and B6, with “binds”.
Still for that read-out and setting: then B7, with “binds”; and B8, with “binds”; and B9, with “binds”.
On to B10, for which the binding result is listed as “binds”.
On the same count and under the same terms, the entry for B11 is “binds”.
Same read-out and setting: the entry for B12 is “binds”.

A further experiment deals with T2, soluble histidine-tagged form of human TLR4/MD2 complex (human, UniProt Q9Y6Y9 19-160). As to the kind of experiment: competitive ELISA; coated 15C1 as competitor, soluble His-tagged human TLR4/MD2, Penta-His-HRP. How it is done:
(§1) The VH and VL cDNA sequences in their appropriate expression vectors were transfected into mammalian cells using the Fugene 6 Transfection Reagent (Roche, Basel, Switzerland). Briefly, Peak cells were cultured in 6-well plates at a concentration of 6×10⁵ cells per well in 2 mL culture media containing fetal bovine serum. The expression vectors, encoding the candidate VH and VL sequences, were co-transfected into the cells using the Fugene 6 Transfection Reagent according to manufacturer's instructions. One day following transfection, the culture media was aspirated, and 3 mL of fresh serum-free media was added to cells and cultured for three days at 37° C. Following three days culture period, the supernatant was harvested for IgG purified on protein G-Sepharose 4B fast flow columns (Sigma, St. Louis, Mo.) according to manufacturer's instructions. Briefly, supernatants from transfected cells were incubated overnight at 4° C. with ImmunoPure (G) IgG binding buffer (Pierce, Rockford Ill.). Samples were then passed over Protein G-Sepharose 4B fast flow columns and the IgG consequently purified using elution buffer. The eluted IgG fraction was then dialyzed against PBS and the IgG content quantified by absorption at 280 nm. Purity and IgG integrity were verified by SDS-PAGE. Relative binding potency of 1E11 variants was assessed by competitive ELISA. Briefly, 15C1 antibody was coated overnight in a 96-well Maxisorp plate and then blocked with PBS-BSA. The 15C1 reference antibody and affinity matured variants of 1E11 were added to the plate at a fixed concentration and a 3.5-fold serial dilution of the samples was performed. Then, soluble histidine-tagged form of human TLR4/MD2 complex was added to the plate at a fixed concentration. After incubation one hour at 37° C., the plate was washed and a solution of Penta-His-HRP antibody was distributed, this step was followed by an additional incubation time of one hour at 37° C. Finally, the plate was washed and TMB was added for colorimetric revelation, the enzymatic reaction is stopped by H₂SO₄ solution. The results were determined according to the absorbance at 450 nm. The relative binding potency was calculated by dividing the reference EC₅₀ with affinity matured variants EC₅₀ (Table 8).
In the case of B2, the EC50 was 0.13 µg/mL.
On the same count and under the same terms, then B3, with 0.157 µg/mL; and B4, with 0.061 µg/mL.
As to B5, the EC50 worked out at 0.119 µg/mL.
For B6, the EC50 was determined as 0.126 µg/mL.
The same measure, in the same setting: then B13, with 0.052 µg/mL; and B7, with 0.315 µg/mL; and B8, with 0.021 µg/mL.
The same measure, in the same setting: the figure for B9 is 0.017 µg/mL.
Still for that read-out and setting: the figure for B10 is 0.015 µg/mL; for B11 it is 0.087 µg/mL; for B12 it is 0.152 µg/mL.

Another experiment has as its target T2, soluble histidine-tagged form of human …. As to the kind of experiment: competitive ELISA; 15C1 reference EC50 divided by variant EC50. How it is done: as §1
Consider B2, for which the “Relative binding potency increase” value came out at 5 fold.
B3: the “Relative binding potency increase” value is 4 fold.
For the molecule B4, the “Relative binding potency increase” value amounted to 10 fold.
With B5, the “Relative binding potency increase” value stood at 5 fold.
The same measure, in the same setting: the figure for B6 is 5 fold.
Same read-out and setting: then B13, with 12 fold.
Same read-out and setting: then B7, with 2 fold; and B8, with 29 fold.
B9: the “Relative binding potency increase” value worked out at 36 fold.
The same measure, in the same setting: the figure for B10 is 40 fold; for B11 it is 7 fold; for B12 it is 4 fold.

The target of a further experiment is T1, cynomolgus monkey TLR4 expressed on …. As to the kind of experiment: summary table of species specificity (flow cytometry results). How it is done: 10⁵ CHO cells or CHO cells expressing the cynomolgus monkey TLR4 were incubated in phosphate-buffered saline, 2% bovine serum albumin with different concentrations of purified antibodies selected by FMAT (1A1, 1A6, 1B12, 1C7, 1C10, 1C12, 1D10, 1E11, 1G12) with 15C1 as control. Cells were washed in phosphate-buffered saline, 2% bovine serum albumin and incubated in Alexa Fluor® 647 goat anti human IgG (H+L) (1:200; Invitrogen). Cells were analyzed using a FACS calibur cytometer (BD Biosciences).
Similar experiments were conducted with CHO cells or CHO cells expressing the human TLR4/MD2 complex. […] 1C12 Mab was also able to bind to human TLR4 but with a lower potency compared to 1E11 and 15C1 Mabs.
Take B14: the binding result is given as “binds”.
With B15, the binding result is on record as “binds”.
Same read-out and setting: then B16, with “binds”; and B17, with “binds”.
On the same count and under the same terms, then B18, with “binds”.
The same measure, in the same setting: the entry for B19 is “binds”.
For the molecule B20, the binding result is recorded as “binds”.
The same measure, in the same setting: the entry for B21 is “binds”; for B22 it is “binds”.
